Experimental data reported in publication PMC6695792 (Molecules, 2019).
No end group written: not given here.

Target: hPD-L1 of the Cis-Bio HTRF assay kit (human, UniProt Q9NZQ7 19-238)
Assay: AlphaScreen or HTRF; Cis-Bio kit, 5 nM hPD-L1 and 50 nM hPD-1, 20 µL, dilution series of the inhibitor up to 5 mM, 2 h at room temperature, duplicates, normalized Hill fit
Conditions: both partners purified

B1: AUNP-12 peptide (peptide)
chain 1: SNTSESFKFRVTQLAPKAQIKE
chain 2: SNTSESF
modifications: also: bond at chain A 8 at chain B 7 to a chain's C-terminus via isopeptide
B1 showed an IC50 of over 10 mM.
